Laboratory results as given in the supplement of paper PMC7877785.
± gives the uncertainty stated by the source.

Experiment: self-splicing fitness, log relative to wild type (ln ratio); higher = more splicing; Tetrahymena group I intron in knt gene, E. coli kanamycin selection, DiMSum; sequences stand for … in CUCUCU…GGAGGGAAAAGUUAUCAGGCAUGCACCUGGUAGCUAGUCUUUAAACCAAUAGAUUGCAUCGGUUUAAAAGGCAAGACCGUCAAAUUGCGGGAAAGGGGUCAACAGCCGUUCAGUACCAAGUCUCAGGGGAAACUUUGAGAUGGCCUUGCAAAGGGUAUGGUAAUAAGCUGACGGACAUGGUCCUAACCACGCAGCCAAGUCCUAAGUCAACAGAUCUUCUGUUGAUAUGGAUGCAGUUCACAGACUAAAUGUCGGUCGGGGAAGAUGUAUUCUUCUCAUAAGAUAUAGUCGGACCUCUCCUUAAUGGGAGCUAGCGGAUGAAGUGAUGCAACACUGGAGCCGCUGGGAACUAAUUUGUAUGCGAAAGUAUAUUGAUUAGUUUUGGAGUACUCGUGGUCG
Summary of the method: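 Library with all eight P1ex-region intron nucleotides randomised, intron inside the knt kanamycin-resistance gene on pET-22b(+), in E. coli BL21(DE3). Cells grew overnight at 37°C or 30°C on LB agar with or without 25 μg/mL kanamycin (plus 100 μg/mL carbenicillin, 50 μM IPTG, 0.2% rhamnose), in six replicate transformations. Pooled colonies were amplicon-sequenced on Illumina HiSeq 2500. DiMSum fitness is the error-weighted combination of wild-type-normalised replicate fold changes, kanamycin versus none.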

Row | Sequence | self-splicing fitness (ln) (30 °C) | self-splicing fitness (ln) (37 °C)
1 | AGGCAGCAAUAUUACGGGAC | -3.48 ± 0.23 | -1.94 ± 0.19
2 | GUCUAGCAAUAUUACGCAUA | -1.08 ± 0.14 | -0.121 ± 0.12
3 | CAGAAGCAAUAUUACGCUGA | -2.87 ± 0.18 | -1.98 ± 0.15
4 | UAGUAGCAAUAUUACGCCCA | 0.0306 ± 0.38 | –
5 | CGGCAGCAAUAUUACGAUCA | -1.08 ± 0.11 | -0.194 ± 0.11
6 | AUCCAGCAAUAUUACGUGGC | -3.98 ± 0.17 | -2.62 ± 0.16
7 | UCCUAGCAAUAUUACGUCUG | -4.52 ± 0.41 | -3.05 ± 0.21
8 | UUCUAGCAAUAUUACGCUCA | -0.563 ± 0.15 | -0.208 ± 0.19
9 | GCGCAGCAAUAUUACGUAUG | -3.67 ± 0.23 | -1.8 ± 0.21
10 | AGGUAGCAAUAUUACGAGUC | -3.864 ± 0.037 | -2.49 ± 0.043
11 | CUGCAGCAAUAUUACGGCUA | -2.6 ± 0.19 | -0.78 ± 0.17
12 | CACUAGCAAUAUUACGCGAU | -2.63 ± 0.23 | -2.12 ± 0.28
13 | CCGCAGCAAUAUUACGGCUA | -3.46 ± 0.23 | -2.61 ± 0.22
14 | CUCAAGCAAUAUUACGGGAA | -2.51 ± 0.16 | -1.19 ± 0.14
15 | GAUUAGCAAUAUUACGACAU | -0.469 ± 0.014 | -0.0848 ± 0.033
16 | GCUGAGCAAUAUUACGUAUU | -4.1 ± 0.28 | -2.3 ± 0.22
17 | UAACAGCAAUAUUACGCGUA | -0.931 ± 0.063 | -0.365 ± 0.067
18 | GUUGAGCAAUAUUACGUGUA | -3 ± 0.21 | –
19 | AACCAGCAAUAUUACGGCUU | -0.621 ± 0.056 | 0.209 ± 0.082
20 | GAAUAGCAAUAUUACGUCCC | -1.33 ± 0.12 | -0.165 ± 0.17
21 | AUUUAGCAAUAUUACGUAUG | -2.35 ± 0.34 | -0.838 ± 0.41
22 | UUACAGCAAUAUUACGAUCG | -0.32 ± 0.09 | -0.268 ± 0.11
23 | AAAUAGCAAUAUUACGUUCC | -2.08 ± 0.16 | -1.1 ± 0.19
24 | AAAAAGCAAUAUUACGGAUA | -2.25 ± 0.11 | -1.14 ± 0.097
25 | CUAAAGCAAUAUUACGGUCC | -4.33 ± 0.47 | -2.2 ± 0.35

Row | Sequence | self-splicing fitness (ln) (30 °C) | self-splicing fitness (ln) (37 °C)
26 | UCGGAGCAAUAUUACGCUAU | -3.09 ± 0.34 | -2.48 ± 0.36
27 | AUCGAGCAAUAUUACGGGCC | -1.92 ± 0.27 | -2.19 ± 0.37
28 | AAUAAGCAAUAUUACGAGCC | -3.73 ± 0.29 | -1.64 ± 0.22
29 | CGUAAGCAAUAUUACGUAAC | -4.35 ± 0.26 | -2.51 ± 0.21
30 | UGAAAGCAAUAUUACGGGAG | -1.49 ± 0.12 | -0.515 ± 0.12
31 | GUUUAGCAAUAUUACGGCGU | -0.507 ± 0.094 | -0.0237 ± 0.12
32 | GCUUAGCAAUAUUACGUAGG | -1.51 ± 0.11 | -0.916 ± 0.14
33 | GGUAAGCAAUAUUACGUUUG | – | -2.56 ± 0.21
34 | CCGCAGCAAUAUUACGGUUC | -3.51 ± 0.28 | -3.67 ± 0.37
35 | AAUAAGCAAUAUUACGCUUG | -1.39 ± 0.13 | -0.982 ± 0.15
36 | AACUAGCAAUAUUACGGGUA | -0.761 ± 0.072 | -0.0817 ± 0.07
37 | UUGCAGCAAUAUUACGUCUG | -3.23 ± 0.16 | -2.32 ± 0.18
38 | UUCAAGCAAUAUUACGUGCU | -4.47 ± 0.42 | -2.86 ± 0.35
39 | UGGCAGCAAUAUUACGUAAA | -0.723 ± 0.077 | -0.922 ± 0.093
40 | CGCGAGCAAUAUUACGUCGC | -2.79 ± 0.24 | -3.48 ± 0.37
41 | UCGAAGCAAUAUUACGGCCG | -0.31 ± 0.18 | 0.0326 ± 0.34
42 | CAUAAGCAAUAUUACGGCCU | -3.3 ± 0.37 | -2.79 ± 0.4
43 | CGCAAGCAAUAUUACGACUG | -0.662 ± 0.097 | -0.47 ± 0.12
44 | CGCCAGCAAUAUUACGACCU | -3.15 ± 0.36 | -2.15 ± 0.28
45 | GUAAAGCAAUAUUACGCAUC | -1.36 ± 0.11 | -0.97 ± 0.15
46 | UACGAGCAAUAUUACGGCCG | -0.704 ± 0.13 | -1.01 ± 0.21
47 | GUCGAGCAAUAUUACGCGGU | – | -1.94 ± 0.32
48 | CUGGAGCAAUAUUACGGCUC | -2.58 ± 0.3 | –
49 | CCCGAGCAAUAUUACGGAUU | -4.16 ± 0.18 | -2.55 ± 0.17
50 | UAAUAGCAAUAUUACGAUCG | 0.121 ± 0.076 | 0.472 ± 0.099

Row | Sequence | self-splicing fitness (ln) (30 °C) | self-splicing fitness (ln) (37 °C)
51 | GUUAAGCAAUAUUACGAUGU | -1.16 ± 0.088 | 0.226 ± 0.13
52 | GUUAAGCAAUAUUACGUAUU | -3.27 ± 0.19 | -0.277 ± 0.16
53 | UUUGAGCAAUAUUACGUUAG | – | -1.73 ± 0.35
54 | ACCUAGCAAUAUUACGUGGC | -3.35 ± 0.21 | -2.02 ± 0.21
55 | GAUUAGCAAUAUUACGAAAC | -2.38 ± 0.16 | -1.61 ± 0.17
56 | GGAAAGCAAUAUUACGGACU | -1.51 ± 0.27 | -0.961 ± 0.28
57 | UUCGAGCAAUAUUACGGUCC | -1.91 ± 0.39 | -1.56 ± 0.43
58 | GUUAAGCAAUAUUACGCAUG | -1.11 ± 0.083 | -0.624 ± 0.11
59 | CAGCAGCAAUAUUACGAGGC | -3.04 ± 0.17 | -2.92 ± 0.2
60 | CAUAAGCAAUAUUACGCUUA | -3.59 ± 0.29 | -2.65 ± 0.26
61 | UACCAGCAAUAUUACGGAAC | -3.57 ± 0.44 | -3.27 ± 0.27
62 | AUAGAGCAAUAUUACGAUGU | -0.266 ± 0.067 | 0.423 ± 0.095
63 | GUACAGCAAUAUUACGUGGC | -3.61 ± 0.17 | -1.75 ± 0.13
64 | GGCCAGCAAUAUUACGCAAU | -1.17 ± 0.098 | -1.2 ± 0.09
65 | AAUUAGCAAUAUUACGGACC | – | -1.07 ± 0.48
66 | CGCGAGCAAUAUUACGGGUG | -2.14 ± 0.077 | -1.68 ± 0.1
67 | CUUUAGCAAUAUUACGCGUA | -3.14 ± 0.26 | -3.28 ± 0.35
68 | GUGCAGCAAUAUUACGCUGU | -3.35 ± 0.24 | -2.63 ± 0.26
69 | ACAGAGCAAUAUUACGACGA | -0.906 ± 0.43 | -1.83 ± 0.38
70 | CGUUAGCAAUAUUACGCACU | -2.03 ± 0.12 | -0.906 ± 0.11
71 | UUGGAGCAAUAUUACGCCCU | – | -1.44 ± 0.46
72 | GCAAAGCAAUAUUACGCCAA | -2.08 ± 0.48 | -2.95 ± 0.31
73 | AUGUAGCAAUAUUACGAAUG | -2.89 ± 0.28 | -2.37 ± 0.29
74 | AAUGAGCAAUAUUACGCUGA | -3.08 ± 0.38 | -2.12 ± 0.24
75 | CAUAAGCAAUAUUACGCGAA | -2.82 ± 0.25 | -2.59 ± 0.34

Row | Sequence | self-splicing fitness (ln) (30 °C) | self-splicing fitness (ln) (37 °C)
76 | AGCGAGCAAUAUUACGCGCG | -4.04 ± 0.33 | -1.89 ± 0.25
77 | ACCGAGCAAUAUUACGCUCU | -0.43 ± 0.14 | -1.25 ± 0.16
78 | UGUGAGCAAUAUUACGUUUG | -2.21 ± 0.14 | -2.76 ± 0.26
79 | UUCUAGCAAUAUUACGGCCG | -1.96 ± 0.14 | -1.56 ± 0.16
80 | CCCUAGCAAUAUUACGCUCG | -2.25 ± 0.2 | -2.85 ± 0.48
81 | AGGGAGCAAUAUUACGAUUU | -2.26 ± 0.18 | -1.92 ± 0.29
82 | ACUGAGCAAUAUUACGAUUG | – | -3.25 ± 0.37
83 | GGAUAGCAAUAUUACGGUGG | -3.85 ± 0.18 | -2.48 ± 0.14
84 | UUAGAGCAAUAUUACGUCCU | -1.36 ± 0.21 | -1.87 ± 0.31
85 | CUAAAGCAAUAUUACGCAAA | -3.47 ± 0.25 | –
86 | CAAAAGCAAUAUUACGCUGC | -3.02 ± 0.25 | -3.03 ± 0.29
87 | AGGCAGCAAUAUUACGUGGC | -2.88 ± 0.2 | -2.58 ± 0.22
88 | CUGGAGCAAUAUUACGCGGA | -1.86 ± 0.24 | –
89 | UGUCAGCAAUAUUACGCAUG | -0.692 ± 0.077 | 0.415 ± 0.097
90 | AAGAAGCAAUAUUACGGUGC | -3.77 ± 0.2 | -1.68 ± 0.17
91 | CGAUAGCAAUAUUACGGAGA | -3.98 ± 0.42 | -2.4 ± 0.29
92 | UGCCAGCAAUAUUACGGAAA | -1.8 ± 0.1 | -0.0875 ± 0.13
93 | AGGAAGCAAUAUUACGGUGG | -3.94 ± 0.22 | -1.64 ± 0.28
94 | GGGUAGCAAUAUUACGUGGG | -4.13 ± 0.32 | -2.29 ± 0.19
95 | CAGUAGCAAUAUUACGCCAA | -2.85 ± 0.36 | -2.91 ± 0.31
96 | AGCCAGCAAUAUUACGUCAA | -3.18 ± 0.22 | -2.53 ± 0.21
97 | GCCUAGCAAUAUUACGGAAA | -0.507 ± 0.27 | -0.985 ± 0.26
98 | AAACAGCAAUAUUACGGGAA | -2.41 ± 0.17 | -1.24 ± 0.12
